In experiment [1] the target is T1, cyno IL-23 (cyno, limits assumed).
T1 construct: Heterodimer of p19 and p40; also called cynomolgus IL-23
T1 chain 1: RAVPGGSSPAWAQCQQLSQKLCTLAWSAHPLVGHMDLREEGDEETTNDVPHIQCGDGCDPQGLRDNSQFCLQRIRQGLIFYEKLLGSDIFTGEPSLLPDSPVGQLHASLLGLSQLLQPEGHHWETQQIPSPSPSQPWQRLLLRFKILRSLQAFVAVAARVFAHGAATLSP
T1 chain 2: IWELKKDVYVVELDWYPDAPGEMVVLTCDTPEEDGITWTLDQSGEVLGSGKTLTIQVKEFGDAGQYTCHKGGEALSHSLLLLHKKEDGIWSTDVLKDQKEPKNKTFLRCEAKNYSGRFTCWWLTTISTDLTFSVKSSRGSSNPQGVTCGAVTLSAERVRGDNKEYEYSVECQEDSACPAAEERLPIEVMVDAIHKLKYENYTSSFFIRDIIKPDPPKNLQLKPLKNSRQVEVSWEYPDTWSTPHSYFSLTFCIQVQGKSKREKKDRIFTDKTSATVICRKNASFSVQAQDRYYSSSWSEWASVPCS
The experiment can be described thus: SPR Biacore, purified mAb captured on anti-human IgG, cyno IL-23 64-0.062 nM. On the procedure: (§1) An anti-human IgG (Biacore BR-1008-39) was immobilised on a Biacore CM5 chip by primary amine coupling in accordance with the manufacturer's instructions. Anti IL-23 antibodies were captured on this surface and after a period of stabilisation, IL-23 (cyno or human) was passed over the antibody captured surface and a binding sensorgram was obtained. […] All runs were double referenced with a buffer injection over the captured antibody surface. Data was analysed using the 1:1 model using the software inherent to the Biacore T100. Analysis was carried out at 25° C. using HBS-EP buffer. Data presented in Tables 1 and 2 are on tissue culture supernatants of HEK cells transiently expressing the antibody of interest unless otherwise indicated.
(§2) This experiment was repeated with purified IL-23 antibodies and data shown in Table 3 was generated using 64, 16, 4, 1, 0.25 and 0.062 nM concentrations of human and cyno IL-23.

Experiment [2] has as its target T2, human IL-23 (human, UniProt Q9NPF7 20-189; P29460 23-328).
T2 construct: Heterodimer of p19 and p40; also called hIL-23
T2 sequence 1: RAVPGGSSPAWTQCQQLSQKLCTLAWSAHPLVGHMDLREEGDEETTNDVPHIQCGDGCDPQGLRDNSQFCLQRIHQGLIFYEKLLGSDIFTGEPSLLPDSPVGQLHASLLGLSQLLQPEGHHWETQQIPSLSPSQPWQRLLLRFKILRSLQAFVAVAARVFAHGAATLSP
T2 sequence 2: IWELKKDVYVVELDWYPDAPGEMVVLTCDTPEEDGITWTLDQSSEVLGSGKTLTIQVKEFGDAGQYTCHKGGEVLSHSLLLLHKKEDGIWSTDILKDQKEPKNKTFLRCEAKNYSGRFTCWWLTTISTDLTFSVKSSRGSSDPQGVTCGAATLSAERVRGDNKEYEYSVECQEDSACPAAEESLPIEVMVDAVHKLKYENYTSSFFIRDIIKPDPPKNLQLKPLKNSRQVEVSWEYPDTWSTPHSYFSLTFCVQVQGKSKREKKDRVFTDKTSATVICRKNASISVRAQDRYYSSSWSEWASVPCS
The experiment can be described thus: SPR Biacore, purified mAb captured on anti-human IgG, human IL-23 64-0.062 nM. On the procedure:
as §1, §2

Experiment [3] concerns the target T2, human IL-23. The experiment can be described thus: SPR Biacore T100, mAb from HEK supernatant captured on anti-human IgG, human IL-23 64-0.062 nM. On the procedure:
as §1

Experiment [4] addresses T2, human IL-23. The experiment is described as follows: cell-based or functional assay.
In experiment [5] the target is T1, cyno IL-23. The experiment can be described thus: SPR Biacore T100, mAb from HEK supernatant captured on anti-human IgG, one concentration of cyno IL-23 (256 nM). On the procedure:
as §1

The target in experiment [6] is T2, human IL-23. The experiment can be described thus: inhibition ELISA: antibody pre-incubated with a constant concentration of human IL-23, IL-23 bound to plate-coated human IL23R Fc chimera detected with biotinylated anti-human IL12, OD450. On the procedure:
Plates were coated with human IL23R Fc chimera at […] (phosphate buffered saline). 50 μl/well of this mixture was incubated overnight at 4° C. The plates were then washed three times with Phosphate Buffered Saline with 0.05% Tween 20 (PBST). Plates were blocked with 4% skim milk powder (Fluka BioChemika #70166) PBST 100 μl/well for a minimum of 1 hour at room temperature. The plates were then washed three times with Phosphate Buffered Saline+0.05% Tween 20 (PBST). Various concentrations of antibody were incubated in a separate plate with a constant concentration of IL-23 for 1 hour at room temperature. 50 ul of each mixture were transferred to the assay plate and incubated at RT for 1 hr. They were then washed three times with Phosphate Buffered Saline+0.05% Tween 20 (PBST). Bound IL23 was detected by anti human IL12 Biotin labelled Ab (R&D systems BAF219) diluted to 100 ng/ml in 4% skim milk powder (Fluka BioChemika #70166) PBST. 50 μl/well of the biotinylated antibody was added and incubated at RT for 1 hour. The plates were then washed three times with Phosphate Buffered Saline+0.05% Tween 20 (PBST). SA HRP (GE healthcare RPN4401) was diluted 1/4000 in 4% skim milk powder (Fluka BioChemika #70166) PBS, 50 μl/well was added to the plates. The plates were then washed three times with Phosphate Buffered Saline+0.05% Tween 20 (PBST). 50 ul/well of TMB was added to the plates and incubated at RT for 15 min. 25 μl/well of 3 MH₂SO₄ was added to the wells already containing TMB. The plate was read at OD450 nm using the SOftmaxPRO versamax plate reader.

B1: A5M20 (antibody, human IgG1, kappa, V domains shown)
VH: QVQLVQSGAEVKKPGSSVKVSCKASGYTFTSYGITWVRQAPGQGLEWMGENYPRSGNTYYNEKFKGRVTITADKSTSTAYMELSSLRSEDTAVYYCARAEFISTVVAPYYYALDYWGQGTLVTVSS
VL: DIVMTQSPDSLAVSLGERATINCKASKKVTIFGSISALHWYQQKPGQPPKLIYNLAKLESGVPDRFSGSGSGTDFTLTISSLQAEDVAVYYCLQNKEVPYTFGGGTKVEIKR
In the case of B1, the Kd was found to be 0.086 nM with cyno IL-23 [1], 0.061 nM with human IL-23 [2], 0.066 nM in the experiment with human IL-23 [3] and 0.115 nM with cyno IL-23 [5]. Also, the dissociation rate constant (koff) is 0.000176 s⁻¹ with cyno IL-23 [1], 0.00014 s⁻¹ with human IL-23 [2], 0.000159 s⁻¹ in the experiment with human IL-23 [3] and 0.000306 s⁻¹ with cyno IL-23 [5]. Further, the kon with cyno IL-23 [1] is 2.05e+06 M⁻¹ s⁻¹; with human IL-23 [2], 2.29e+06 M⁻¹ s⁻¹; in the experiment with human IL-23 [3], 2.41e+06 M⁻¹ s⁻¹; with cyno IL-23 [5], 2.66e+06 M⁻¹ s⁻¹. For the same molecule, the “IC50 (inhibition of IL-23 driven STAT3 phosphorylation in human activated T cell blasts)” value in the experiment with human IL-23 [4] was found to be 0.0685 nM. In addition, the “IC50 (read off the curve)” value in the experiment with human IL-23 [6] was about 0.2 nM.

B2: A5M12 (antibody, human IgG1, V domains shown)
VH: QVQLVQSGAEVKKPGSSVKVSCKASGYTFTSYGITWVRQAPGQGLEWMGENYPRSGNTYYNEKFKGRVTITADKSTSTAYMELSSLRSEDTAVYYCARAEFISTVVAPYYYALDYWGQGTLVTVSS
VL: DIVMTQSPDSLAVSLGERATINCKASKKVTIYGSTSALHWYQQKPGQPPKLIYNGAKPESGVPDRFSGSGSGTDFTLTISSLQAEDVAVYYCLQNKEVPYTFGGGTKVEIK
In the case of B2, in the experiment with cyno IL-23 [1], the equilibrium dissociation constant (Kd) amounted to 0.093 nM, the koff came out at 0.000134 s⁻¹ and the association rate constant (kon) came out at 1.45e+06 M⁻¹ s⁻¹. In the experiment with human IL-23 [2], this molecule had a Kd of 0.08 nM, an off-rate (koff) of 0.000132 s⁻¹ and an on-rate constant (kon) of 1.66e+06 M⁻¹ s⁻¹. Moreover, the “IC50 (read off the curve)” value in the experiment with human IL-23 [6] was about 0.2 nM.

B3: A5M0 (antibody, human IgG1, kappa, V domains shown)
VH: QVQLVQSGAEVKKPGSSVKVSCKASGYTFTSYGITWVRQAPGQGLEWMGENYPRSGNTYYNEKFKGRVTITADKSTSTAYMELSSLRSEDTAVYYCARAEFISTVVAPYYYALDYWGQGTLVTVSS
VL: DIVMTQSPDSLAVSLGERATINCKASKKVTIFGSISALHWYQQKPGQPPKLIYNGAKLESGVPDRFSGSGSGTDFTLTISSLQAEDVAVYYCLQNKEVPYTFGGGTKVEIKR
In the experiment with cyno IL-23 [1], B3 came in with a dissociation constant Kd of 0.173 nM, an off-rate (koff) of 0.000224 s⁻¹ and a kon of 1.3e+06 M⁻¹ s⁻¹. In the experiment with human IL-23 [2], this molecule displayed a Kd of 0.114 nM, a koff of 0.000175 s⁻¹ and a kon of 1.54e+06 M⁻¹ s⁻¹. Also, the “IC50 (read off the curve)” value with human IL-23 [6] was about 0.3 nM.

B4: A3M18 (antibody, human IgG1, kappa, V domains shown)
VH: QVQLVQSGAEVKKPGSSVKVSCKASGYTFTSYGITWVRQAPGQGLEWMGENYPRSGNTYYNEKFKGRVTITADKSTSTAYMELSSLRSEDTAVYYCARSEFISTVVAPYYYALDYWGQGTLVTVSS
VL: DIVMTQSPDSLAVSLGERATINCKASKKVTIFGSTSALHWYQQKPGQPPKLIYNLAKPESGVPDRFSGSGSGTDFTLTISSLQAEDVAVYYCLQNKEVPYTFGGGTKVEIKR
In the experiment with human IL-23 [3], B4 returned a Kd of 0.066 nM, a koff of 0.000115 s⁻¹ and an association rate constant (kon) of 1.73e+06 M⁻¹ s⁻¹. Also, in the experiment with cyno IL-23 [5], the affinity, expressed as Kd, was 0.185 nM; the koff turned out to be 0.000163 s⁻¹; the on-rate constant (kon) came to 883000 M⁻¹ s⁻¹.

B5: A5M21 (antibody, human IgG1, kappa, V domains shown)
VH: QVQLVQSGAEVKKPGSSVKVSCKASGYTFTSYGITWVRQAPGQGLEWMGENYPRSGNTYYNEKFKGRVTITADKSTSTAYMELSSLRSEDTAVYYCARAEFISTVVAPYYYALDYWGQGTLVTVSS
VL: DIVMTQSPDSLAVSLGERATINCKASKKVTIYGSTSALHWYQQKPGQPPKLIYNLAKPESGVPDRFSGSGSGTDFTLTISSLQAEDVAVYYCLQNKEVPYTFGGGTKVEIKR
Regarding B5, the equilibrium dissociation constant (Kd) with cyno IL-23 [1] was determined as 0.075 nM; with human IL-23 [2] it was 0.064 nM; with human IL-23 [3] it was 0.065 nM; with cyno IL-23 [5], 0.169 nM. For the same molecule, the koff in the experiment with cyno IL-23 [1] came out at 0.00012 s⁻¹; with human IL-23 [2], 0.000112 s⁻¹; with human IL-23 [3], 0.000113 s⁻¹; in the experiment with cyno IL-23 [5], 0.000123 s⁻¹. Further, the on-rate constant (kon) with cyno IL-23 [1] turned out to be 1.6e+06 M⁻¹ s⁻¹; in the experiment with human IL-23 [2], 1.74e+06 M⁻¹ s⁻¹; with human IL-23 [3] it was 1.73e+06 M⁻¹ s⁻¹; with cyno IL-23 [5] it was 727000 M⁻¹ s⁻¹. For the same molecule, the “IC50 (inhibition of IL-23 driven STAT3 phosphorylation in human activated T cell blasts)” value with human IL-23 [4] was 0.0384 nM. In addition, the “IC50 (read off the curve)” value with human IL-23 [6] is about 0.2 nM.

B6: A24AM4 (antibody, human IgG1, kappa, V domains shown)
VH: QVQLVQSGAEVKKPGSSVKVSCKASGYTFTSYGITWVRQAPGQGLEWMGENYPRSGNIYYNEKFKGRVTITADKSTSTAYMELSSLRSEDTAVYYCARAEFISTVVAPYYYALDYWGQGTLVTVSS
VL: DIVMTQSPDSLAVSLGERATINCKASKKVTIFGSTSALHWYQQKPGQPPKLIYNGAKPESGVPDRFSGSGSGTDFTLTISSLQAEDVAVYYCLQNKEVPYTFGGGTKVEIKR
Take B6: in the experiment with cyno IL-23 [1], binding was put at a Kd of 0.085 nM, the off-rate (koff) came to 0.000147 s⁻¹ and the kon was found to be 1.74e+06 M⁻¹ s⁻¹. In the experiment with human IL-23 [2], binding was characterised by a dissociation constant (Kd) of 0.065 nM, the off-rate constant (koff) came out at 0.000132 s⁻¹ and the kon came out at 2.02e+06 M⁻¹ s⁻¹. The “IC50 (read off the curve)” value with human IL-23 [6] was about 0.2 nM.

B7: A6M20 (antibody, human IgG1, kappa, V domains shown)
VH: QVQLVQSGAEVKKPGSSVKVSCKASGYTFTSYGITWVRQAPGQGLEWMGENYPRSGNTYYNEKFKGRVTITADKSTSTAYMELSSLRSEDTAVYYCARVEFISTVVAPYYYALDYWGQGTLVTVSS
VL: DIVMTQSPDSLAVSLGERATINCKASKKVTIFGSISALHWYQQKPGQPPKLIYNLAKLESGVPDRFSGSGSGTDFTLTISSLQAEDVAVYYCLQNKEVPYTFGGGTKVEIKR
In the experiment with human IL-23 [3], B7 returned a Kd of 0.078 nM, a koff of 0.000205 s⁻¹ and a kon of 2.62e+06 M⁻¹ s⁻¹. In the experiment with cyno IL-23 [5], the Kd is 0.136 nM, the dissociation rate constant (koff) was 0.000497 s⁻¹ and the on-rate (kon) worked out at 3.65e+06 M⁻¹ s⁻¹.

The record behind these values is patent US20120128689A1 (GlaxoSmithKline, published 2012).
